Source: patent US20040166109A1 (AVENTIS PHARMA S A, published 2004)

B1: LexA fusion of the PTB1 domain of the human FE65 protein (amino acids 395 to 543), expressed from pLex-FE65PTB1 (other)
chain: PPRNTNPGIKCFAVRSLGWVEMTEEELAPGRSSVAVNNCIRQLSYHKNNLHDPMSGGWGEGKDLLLQLEDETLKLVEPQSQALLHAQPIISIRVWGVGRDSGRDFAYVARDKLTQMLKCHVFRCEAPAKNIATSLHEICSKIMAERRNA
notes: Two-hybrid bait expressed in yeast strain L40; PTB1 fragment cloned between XmaI and SalI downstream of LexA; also called PTB1 domain of FE65; not shown: LexA protein encoded by vector pLex9 (pBTM116); N-terminal fusion partner

Experiments:
Assay in all cases: yeast two-hybrid (LexA bait, GAL4 AD prey), beta-galactosidase filter assay
[1] = target: T1, GAL4 transactivating domain fusion of the central region of human hnRNPL (amino acids 116 to 464), brain … (human, UniProt P14866 147-495, limits assumed)
T1 construct: Two-hybrid prey isolated in the screen; also called central portion of hnRNPL
T1 sequence: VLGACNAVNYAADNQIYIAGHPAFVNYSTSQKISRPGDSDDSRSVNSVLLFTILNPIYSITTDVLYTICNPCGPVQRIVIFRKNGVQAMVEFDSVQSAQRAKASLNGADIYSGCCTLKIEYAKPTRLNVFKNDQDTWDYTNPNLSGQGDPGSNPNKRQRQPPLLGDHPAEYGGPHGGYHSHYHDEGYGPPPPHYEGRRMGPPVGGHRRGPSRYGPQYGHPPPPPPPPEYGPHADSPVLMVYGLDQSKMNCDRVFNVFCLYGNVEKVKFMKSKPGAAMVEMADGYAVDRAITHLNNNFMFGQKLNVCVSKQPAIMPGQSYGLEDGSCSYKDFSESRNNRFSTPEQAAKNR

[2] = target: T2, GAL4 transactivating domain fusion of the FEBP1 (FE65 Binding PTB1 domain protein) fragment of 337 amino … (human, UniProt Q9UH62 44-379, limits assumed)
T2 construct: Two-hybrid prey isolated from a human brain cDNA library; a fragment of FEBP1, limits on the whole protein not known; also called fragment of the FEBP1 protein
T2 sequence: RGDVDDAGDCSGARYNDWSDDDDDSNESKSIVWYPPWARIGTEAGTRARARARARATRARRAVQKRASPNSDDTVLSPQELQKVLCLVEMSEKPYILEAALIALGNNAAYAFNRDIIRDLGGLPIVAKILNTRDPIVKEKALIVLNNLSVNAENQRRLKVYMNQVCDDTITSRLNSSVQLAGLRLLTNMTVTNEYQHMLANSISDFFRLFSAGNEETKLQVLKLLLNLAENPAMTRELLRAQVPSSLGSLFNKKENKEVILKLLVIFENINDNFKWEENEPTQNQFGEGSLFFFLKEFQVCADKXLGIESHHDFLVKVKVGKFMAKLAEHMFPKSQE

[3] = target: B1

B1
binding result [1]: binds | binding result [2]: binds

B2: GAL4 transactivating domain fusion of the cytoplasmic domain of the APP protein, expressed from pGAD-App (other, UniProt P05067 723-770, looked up, not shown: large carriers)
chain: LKKKQYTSIHHGVVEVDAAVTPEERHLSKMQQNGYENPTYKFFEQMQN
notes: domain: cytoplasmic domain; Control prey; also called C-terminal domain of the APP
binding result [3]: no binding
